From publication PMC7618375, “Structure and Methyl-lysine Binding Selectivity of the HUSH Complex Subunit MPP8” (Journal of molecular biology, 2024) come the findings set out here.

Series [1] concerns the molecule itself. The series can be described thus: crystal structure; MPP8 CTD, X-ray, 3.04 Å, eight chains in the asymmetric unit; crystals at 18 °C, PEG 4000/1,2,6-hexanetriol, pH 8.5.
The target in series [2] is T1, MPP8 chromodomain (CD, residues 55-116) (human, UniProt Q99549 55-116).
T1 construct: MPP8 (M-phase phosphoprotein 8), human, chromodomain, residues 55-116, UniProt Q99549; Cloned in pET15b with a TEV site (ENLYFQG) in place of the thrombin site; also called MPP8 CD; M-phase phosphoprotein 8 chromodomain; source: E. coli BL21 (DE3), purified (Ni-NTA, Mono Q, Superdex 75 SEC)
T1 sequence (looked up): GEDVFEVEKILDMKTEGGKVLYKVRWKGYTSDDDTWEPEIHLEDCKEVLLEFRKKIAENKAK
The series can be described thus: ITC; 750 uM peptide in the syringe titrated into 50 uM MPP8 CD in the cell; 50 mM HEPES pH 7.4, 0.1 M NaCl, 0.5 mM TCEP, 25 °C; single-site model. As to conditions: both partners purified. In general terms: In ITC the heat of successive injections is recorded.

No end group written: not given here. Me2 = dimethyl on the lysine side-chain amine

B1: MPP8 C-terminal domain (CTD, residues 547-860) (domain or fragment, human, UniProt Q99549 547-860, looked up)
chain: DFQKHLDGKDENFAATDAIPSNVLRDAVKNGDYITVKVALNSNEEYNLDQEDSSGMTLVMLAAAGGQDDLLRLLITKGAKVNGRQKNGTTALIHAAEKNFLTTVAILLEAGAFVNVQQSNGETALMKACKRGNSDIVRLVIECGADCNILSKHQNSALHFAKQSNNVLVYDLLKNHLETLSRVAEETIKDYFEARLALLEPVFPIACHRLCEGPDFSTDFNYKPPQNIPEGSGILLFIFHANFLGKEVIARLCGPCSVQAVVLNDKFQLPVFLDSHFVYSFSPVAGPNKLFIRLTEAPSAKVKLLIGAYRVQLQ
notes: MPP8 (M-phase phosphoprotein 8), human, C-terminal domain (ankyrin repeats and PINIT-like domain), residues 547-860, UniProt Q99549; residues 547-562 disordered in the crystal, model spans 563-860; also called MPP8 CTD; source: E. coli BL21 (DE3), purified (Ni-NTA, thrombin cleavage, Resource Q, Superdex 200 SEC); not shown: His6, N-terminal, cleaved
As usually defined, the stoichiometry N is a count of units in the complex or per binding partner. For the molecule B1, the “stoichiometry N” value in series [1] came to 2. The term Kd denotes the constant that tells how readily two partners part at equilibrium. A high value points to lower affinity. Turning to TKQTARK(Me2)STGGK [Histone H3 peptide dimethylated at lysine 9], the Kd in series [2] came to 1700 nM. This counts as single-digit micromolar.
